Conditions in all cases: both partners purified
For assay [1], the target named is T1, IQGAP1 GRD1-RGCT S1441E (aa 877-1558) (human, UniProt P46940 877-1558, S1441E).
T1 construct: human IQGAP1 aa 877-1558 with the phosphomimetic mutation S1441E, from the vector pET46 EkLIC; source: E. coli (pLysS BL21(DE3), CodonPlusRIL or BL21(Rosetta)), purified (Ni-NTA, gel filtration)
T1 sequence (looked up): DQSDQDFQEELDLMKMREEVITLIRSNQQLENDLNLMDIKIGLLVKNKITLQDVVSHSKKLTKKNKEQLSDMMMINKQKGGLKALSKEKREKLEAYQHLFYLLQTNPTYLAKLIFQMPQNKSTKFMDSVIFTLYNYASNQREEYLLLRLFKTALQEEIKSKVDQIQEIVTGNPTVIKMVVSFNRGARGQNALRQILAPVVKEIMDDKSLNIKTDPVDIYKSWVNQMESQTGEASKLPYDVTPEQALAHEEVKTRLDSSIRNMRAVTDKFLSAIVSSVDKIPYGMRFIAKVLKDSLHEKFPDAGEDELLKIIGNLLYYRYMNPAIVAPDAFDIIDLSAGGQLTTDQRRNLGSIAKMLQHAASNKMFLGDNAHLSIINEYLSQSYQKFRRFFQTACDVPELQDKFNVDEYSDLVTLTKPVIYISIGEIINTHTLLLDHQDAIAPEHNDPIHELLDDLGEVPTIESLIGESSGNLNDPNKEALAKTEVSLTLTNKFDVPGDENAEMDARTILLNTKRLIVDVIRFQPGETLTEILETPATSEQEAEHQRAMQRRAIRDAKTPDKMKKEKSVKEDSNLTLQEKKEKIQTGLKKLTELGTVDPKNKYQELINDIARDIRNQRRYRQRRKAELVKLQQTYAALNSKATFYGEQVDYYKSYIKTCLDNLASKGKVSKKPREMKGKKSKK
Kind of assay: fluorescence polarisation; IQGAP1 variant titrated to mGppNHp-bound RHO protein (1 μM); equilibrium Kd (eKd), quadratic fit; 30 mM Tris/HCl pH 7.5, 150 mM NaCl, 5 mM MgCl2, 3 mM DTT, 25 °C. In general terms: Polarisation of emitted light reports the rotation of a fluorescent probe.

Assay [2] concerns the target T2, IQGAP1 GRD1-CT (aa 863-1657) (human, UniProt P46940 863-1657).
T2 construct: human IQGAP1, GRD, RGCT and CT domains, aa 863-1657; The GST tag was cleaved 'if needed'; also called C-terminal half of IQGAP1; C-terminal 795 amino acids of IQGAP1
T2 sequence (looked up): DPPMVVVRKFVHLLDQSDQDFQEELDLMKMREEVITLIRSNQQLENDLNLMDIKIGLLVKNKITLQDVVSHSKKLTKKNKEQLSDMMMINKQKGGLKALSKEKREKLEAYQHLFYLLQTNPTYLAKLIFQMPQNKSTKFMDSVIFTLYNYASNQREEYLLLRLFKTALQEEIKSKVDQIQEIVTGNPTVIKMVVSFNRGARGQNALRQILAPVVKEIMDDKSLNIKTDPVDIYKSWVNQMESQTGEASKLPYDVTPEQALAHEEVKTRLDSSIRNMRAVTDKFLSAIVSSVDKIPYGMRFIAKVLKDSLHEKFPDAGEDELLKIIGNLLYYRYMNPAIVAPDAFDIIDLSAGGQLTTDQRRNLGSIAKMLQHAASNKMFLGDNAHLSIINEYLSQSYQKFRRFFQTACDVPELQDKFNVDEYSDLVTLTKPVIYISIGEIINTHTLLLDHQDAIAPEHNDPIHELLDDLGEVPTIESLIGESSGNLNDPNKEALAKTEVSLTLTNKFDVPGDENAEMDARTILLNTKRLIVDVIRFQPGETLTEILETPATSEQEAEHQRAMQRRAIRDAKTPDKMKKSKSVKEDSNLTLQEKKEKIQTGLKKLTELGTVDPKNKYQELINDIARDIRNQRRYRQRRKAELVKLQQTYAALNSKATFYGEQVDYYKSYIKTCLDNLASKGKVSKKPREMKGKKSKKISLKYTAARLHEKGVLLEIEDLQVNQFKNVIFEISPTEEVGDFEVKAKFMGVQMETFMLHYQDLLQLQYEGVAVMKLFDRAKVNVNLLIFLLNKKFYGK
Kind of assay: stopped-flow fluorometry; tGppNHp (tamra-GppNHp)-bound CDC42 or CDC42 Q61L (0.2 μM) rapidly mixed with IQGAP1 variant (2-10 μM GRD1-CT for Q61L); Kd = koff/kon; 30 mM Tris-HCl pH 7.5, 10 mM KH2PO4/K2HPO4, 5 mM MgCl2, 3 mM DTT.

The target in assay [3] is T3, IQGAP1 GRD1-RGCT S1443E (aa 877-1558) (human, UniProt P46940 877-1558, S1443E).
T3 construct: human IQGAP1 aa 877-1558 with the phosphomimetic mutation S1443E (printed as S1143E in the methods, S1443E everywhere else), from the vector pET46 EkLIC; source: E. coli (pLysS BL21(DE3), CodonPlusRIL or BL21(Rosetta)), purified (Ni-NTA, gel filtration)
T3 sequence (looked up): T1 sequence (looked up) with E565S, S567E
The description is as above.

Substitutions are numbered along the chain they refer to.

What is called Kd is the concentration at which binding is half-saturated.

B1: CDC42 (aa 1-178) (domain or fragment)
chain: not shown
notes: human CDC42, C-terminally truncated, aa 1-178; Loaded non-covalently with mGppNHp, tGppNHp, mGDP or non-fluorescent GppNHp; the nucleotide is named in the format of each assay; also called CDC42^WT; CDC42-mGppNHp
On to B1, for which the Kd was 3.6 µM in assay [1], 0.38 µM in assay [2] and 4.19 µM in assay [3].

The values are drawn from article PMC5159498, “IQGAP1 Interaction with RHO Family Proteins Revisited” (The Journal of Biological Chemistry, 2016).
